These are literature values, as cited in patent US20020188108.

The target of this series is T1, IF3-His6 (translation initiation factor 3) (Escherichia coli) (UniProt P0A707).
T1 sequence: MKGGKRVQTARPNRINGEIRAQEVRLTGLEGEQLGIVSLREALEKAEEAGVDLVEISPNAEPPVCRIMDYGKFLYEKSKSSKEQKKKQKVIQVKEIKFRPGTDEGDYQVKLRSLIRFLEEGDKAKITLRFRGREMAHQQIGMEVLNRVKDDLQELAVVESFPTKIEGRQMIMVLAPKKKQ
The note with it: CITED Tapprich et al. 1989.

Take 16S rRNA G791A in 30S subunit: the binding signal (fold reduction) is 10.
